Laboratory results published in patent publication US11033621B2, “Combination therapies targeting tumor-associated stroma or tumor cells” (BIOMED VALLEY DISCOVERIES, INC., priority 2014, dated 2021).

Tested on: H460 cells
Test: H460 non-small cell lung carcinoma xenograft model
Format: in vivo, athymic nude mice
Details: combination partner Paclitaxel, Day 21
Procedure: Animals were monitored for regression responses.
The statistical tests were not adjusted for multiple comparisons.
Cultured H460 cells were harvested during exponential growth and resuspended in phosphate buffered saline at a concentration of 1×10^8 cells/mL. 1.0×10^7 tumor cells were injected subcutaneously into the flank of athymic nude mice. Animals were euthanized when tumors reached the pre-determined volume endpoint of 2000 mm^3 or on the final day (Day 88), whichever came first.

B1: M830: TEM8 monoclonal antibody (hIgG1), VH SEQ ID NO:5, VL SEQ ID NO:6; Fab in Table 6 (antibody, V domains shown)
VH: EVQLVESGGGVVQPGRSVRLSCAASGFTFSTYTMHWVRQAPGKGLEWVAIISNDGSNKYYADPVRGRFTISRDNSKNTLYLQMNSLRAEDTAVYYCVRGSSWYRGNWFDPWGQGTLVTVSS
VL: DIQMTQSPSSLSASVGDRVTIACRASQTISRYLNWYQQKPGKAPKLLIYAASSLQSGVSSRFSGSGSGTEFTLTISSLQPEDFATYFCQQTYSPPITFGQGTRLEIKR
modifications: TEM830 mAb VH; TEM830 mAb VL
  regression: (−61%
